The text below walks through data of FireProtDB (doi:10.1093/oxfordjournals.jbchem.a021544).

The chains are these.
B1: Lysozyme C, P61626 (parent)
chain: MKALIVLGLVLLSVTVQGKVFERCELARTLKRLGMDGYRGISLANWMCLAKWESGYNTRATNYNAGDRSTDYGIFQINSRYWCNDGKTPGAVNACHLSCSALLQDNIADAVACAKRVVRDPQGIRAWVAWRNRCQNRDVRQYVQGCGV

Variants of B1 are the subject of one series. As to conditions: Homo sapiens; pH 2.67; Thermal; DSC; glycine 0.05 M; reversible: yes; structure 1LZ1; whole UniProt chain shown.
By Tm is commonly meant the temperature at the midpoint of the melting transition. In the case of MKALIVLGLVLLSVTVQGKVFERCELARTLKRLGMDGYRGISLANWMCLAKWESGYNTRATNYNAGDRSTDYGTFQINSRYWCNDGKTPGAVNACHLSCSALLQDNIADAVACAKRVVRDPQGIRAWVAWRNRCQNRDVRQYVQGCGV, the Tm was 51.8 °C, the “heat capacity change of unfolding” value worked out at 1 kcal/mol/K, the “unfolding enthalpy (calorimetric)” value is 87.8 kcal/mol and the “unfolding enthalpy (van 't Hoff)” value amounted to 90.9 kcal/mol.

Still in this series, the particulars now being: Homo sapiens; pH 2.7; 64.9 °C; Thermal; DSC; glycine 0.05 M; reversible: yes; structure 1LZ1; whole UniProt chain shown.
Regarding MKALIVLGLVLLSVTVQGKVFERCELARTLKRLGMDGYRGISLANWMCLAKWESGYNTRATNYNAGDRSTDYGTFQINSRYWCNDGKTPGAVNACHLSCSALLQDNIADAVACAKRVVRDPQGIRAWVAWRNRCQNRDVRQYVQGCGV, the “ddG of mutation (higher = less stable)” value turned out to be 3.64 kcal/mol and the “heat capacity change of unfolding” value came out at 1.24 kcal/mol/K.

Still in this series, the particulars now being: Homo sapiens; pH 2.7; Thermal; DSC; glycine 0.05 M; reversible: yes; structure 1LZ1; whole UniProt chain shown.
On to MKALIVLGLVLLSVTVQGKVFERCELARTLKRLGMDGYRGISLANWMCLAKWESGYNTRATNYNAGDRSTDYGTFQINSRYWCNDGKTPGAVNACHLSCSALLQDNIADAVACAKRVVRDPQGIRAWVAWRNRCQNRDVRQYVQGCGV, for which the midpoint of thermal melting (Tm) worked out at 52.4 °C; the “change of melting temperature, mutant - wild type (higher = more stable)” value was -12.5 °C; the “heat capacity change of unfolding” value came to 1.24 kcal/mol/K; the “unfolding enthalpy (calorimetric)” value was 102 kcal/mol. Besides, the “unfolding enthalpy (van 't Hoff)” value was 108 kcal/mol.

The same series, now with this note: Homo sapiens; pH 2.98; Thermal; DSC; glycine 0.05 M; reversible: yes; structure 1LZ1; whole UniProt chain shown.
Turning to MKALIVLGLVLLSVTVQGKVFERCELARTLKRLGMDGYRGISLANWMCLAKWESGYNTRATNYNAGDRSTDYGTFQINSRYWCNDGKTPGAVNACHLSCSALLQDNIADAVACAKRVVRDPQGIRAWVAWRNRCQNRDVRQYVQGCGV, the Tm amounted to 58 °C, the “heat capacity change of unfolding” value was determined as 1.2 kcal/mol/K, the “unfolding enthalpy (calorimetric)” value was found to be 93.3 kcal/mol and the “unfolding enthalpy (van 't Hoff)” value was determined as 102 kcal/mol.

The same series, now with this note: Homo sapiens; pH 3.11; Thermal; DSC; glycine 0.05 M; reversible: yes; structure 1LZ1; whole UniProt chain shown.
For MKALIVLGLVLLSVTVQGKVFERCELARTLKRLGMDGYRGISLANWMCLAKWESGYNTRATNYNAGDRSTDYGTFQINSRYWCNDGKTPGAVNACHLSCSALLQDNIADAVACAKRVVRDPQGIRAWVAWRNRCQNRDVRQYVQGCGV, the Tm was 60.5 °C, the “heat capacity change of unfolding” value is 1.15 kcal/mol/K, the “unfolding enthalpy (calorimetric)” value worked out at 97.6 kcal/mol and the “unfolding enthalpy (van 't Hoff)” value turned out to be 103 kcal/mol.
